Data from the DeepSol protein solubility set.

Experiment: soluble on expression in E. coli; label from the status in PepcDB or PDB records
With “MPKKTFENLEDSHGKDVNIPVELPKRKREVTPENLPSTSSTAPTQKRKSLGYSGRTEEPKNIHKTFISPFSTSVSPSKQGLRRRKKALPAIEPPVSVEEASPLRFVNIDVFSRRMASESSDHDAMIAKLLSRKFSIPMEGYMLSGRSLGLGGNRRKCALFDPYHEGALILYAPEHLSEHAQLKEDKDRKVHVVADPVVGKILRPHQRDGVKFMWDCVTGINIPEFHGCIMADEMGLGKTLQCISLLWTLLRQSPDACPTVSKSIIVCPSSLVKNWDKEIKKWLGTRLNAMPVDSGKREQIIACLNSFMADSKMRCAIPVLIISYETFRLYANILHSGDVGIVICDEGHRLKNSENLTYQALSGLKCARRVLISGTPIQNDLLEYFSLVNFVNPGLLGTASEFRKKFENAILKGRDADASSEDQKKGEEKTKEMISLVEKCIIRRTSALLTKYLPVKYEHIICCKNSTLQETLYNKLIECEKQNRIVEKDKGATASALSFITHLKKLCNHPYLVYDEFQKPDNRFRNKCLSIFPESFNPKSFDPSFSGKMKVLDYILAVTRKTTDDKFVLVSNYTQTIDQFMELCKLRGYDFVRLDGSMSIKQRSKIVDTFNDPASTIFCFLLSSKAGGCGLNLIGANRLVMFDPDWNPANDDQAMARVWRDGQKKMCFIYRLLATGSIEEKMFQRQTHKKALSSCVVDAGEDVARHFSSEQLRELFKLESTVASDTHEKLKCKRCIQGVESVDPPTNADCASDLSNWFHSQKSARKVADNVLRAVFECGSISFVFHQKSHNVEVKKVQEKVEEVDEDYVPSEAEENDD” the “soluble on expression in E. coli” value was “soluble”.
For “MSLEPCWKVGFAETSGCLPKLCIAQLRLPAFCNSEGLFGLFDGETGNGVPNLLVKAIPKILLEERTVKETANDYMKYTLLSAHRELKQRGQQEAVNVTLCHIARSRLPTEAMSYLPQTVASGRKFILRVATVGESSAVLIKHNRCVLLNKGSPARKLGLSANFPVTVPDPEVQEVVLTDADEYLVLGNRKLWEVITMETVAEEIRKEENILLAAKRVQDIAQSYGAEENLSVMIVRFNEGHHHHHH”, the “soluble on expression in E. coli” value was “soluble”.
With “NIDSNKKILQEIKRYADEHEERYGRFPKTLIFAVQDLANSSSHADQIVDQARDIFGRGDSFVQKITGKVDRPLQRIREFRNRKEPGIAVTVDLLSTGVDVPDIEYIVFLRSMKSRILFEQMIGRGTRKGEH” the “soluble on expression in E. coli” value was “not soluble”.
With “MVNVLSNLSNLSNILGKSNKGVGIELAPERMNIVHLCKQRQGLKIESLTTIPVPEGIVVDGQINDPPRMAEIIQQGMAESKIKASRVATCIPGRDAIVRVIPVPAELDNKELREMVLNHEAALYLPYPREEADVDYQKLGYFVDEDGIEKVQVLLVATRKEITDTYINTFAEAGLKVDVLEINSFALIRTIRDQLRLFGPQEAAVLVDIEFDSTEIAIIINGVPQFSRTVPIGTYQLQAALSRAMNLPTSRDMDMLMGMTIPTNSMDVGRTGTTGVNPGMGPMLKILGELSDELRRSIDFYINQSEGLEVAQILLAGTGGGLQQLDEFFTQRLGFPTTQIDPIRDLSLQVEAEKYPPVQRPGLGIILGLAMREG” the “soluble on expression in E. coli” value was “not soluble”.
For “MNMSQNLDFIHSAQRTIGLERDAVDSLLARIGDDFVKACELLLAGKGRVVVVGMGKSGHVGKKIAATLASTGTPSFFVHPAEASHGDMGMITKDDVVLALSNSGSTAEIVTLLPLIKRLGITLISMTGNPESPLAKAAEVNLDASVGQEACPLNLAPTSSTTVTLVLGDALAIALLEARGFTAEDFAFSHPGGALGRRLLLKVEDVMHVGEGLPQVLLGTSLTGALMEMTRKGLGMTVVLDEHGKLAGIFTDGDLRRALDRGIDVRQVTIDQVMTVHGKTVRAEILAAEALKIMEDNKIGALVVVDADDRPVGALNMHDLLRAGVM”, the “soluble on expression in E. coli” value was “not soluble”.
For “MGRFPSWVLVADWPAPPGVMVLSTLRGGPGVSVAPFDRLNLGNCSGVAGDAPVCVERNRSRLVEMLGLPSVPHWLRQVHGVEVLRVDALLQSIARVVEPTADAAVTSVVGAVLAILTADCLPVVLAAVDGSEIGVVHAGWRGLADDVLGRTVAALRTSPEYLQAWLGPAAGPQAYEVGVDVYAAFVERDSGAACAFSVTRPGHWYVDLYALARQRLMRAGLSAVSIYGGGLCTISDPQRFFSHRRDRRSGRFATLAWIGC”, the “soluble on expression in E. coli” value was “soluble”.
For “MSLNIPLSGIIPPLVTPLLDDDVLDVEGLQRLIEHLIAGGVHALFVLGTTGESQSLSYKLRMEMIKNTCRIAKGRLPVLVCISDTSIVESVNLACLAADHGADAVVSAPPYYFATGQPELIEFYEHLLPQLPLPLFLYNMPTHTKVNFAPATIQRIAENPGVIGFKDSSANTVYFQSVMYAMKDNPDFSMLVGPEEIMAESVLLGAHGGVNGGANMFPELYVSLYNAAKNADMEEVRRLQEKVMQISATIYTVGQHGSSYLKGLKCALSLLGICSDYVAAPFHKFEQRERGKIWKALQNLGVDEGHHHHHH”, the “soluble on expression in E. coli” value was “soluble”.
For “MQSAELKQFVVDKIDDLKARDVVVIDVSNQSNITDYMVICSGTSKTHVKAIAENLVIEAKAAGIPPIGIEGRDSSEWVLVDMGNVILHVMQDQTRDFYQLEKLWSEKQA”, the “soluble on expression in E. coli” value was “soluble”.
For “FFALDYKRTEYVQYEDDEYYYYVKAVPKLNVASEDVRIKHINAKKTKKTSDIRDMKKTSSHRAESGYQAASAEEDDDILFYDNDDK”, the “soluble on expression in E. coli” value was “not soluble”.
With “MNNNELYVSLDLGTSNTKVIVGEMTGDSLNIIGVGNVPSEGLKKGSIVDIDETVHSIRKAFDQAERMVGFPLRKAIVGVNGNYINIQDTNGVVAVSSENKEIQVEDVRRVMAAAQVVSVPHEQLIVDVIPKQFIVDGRDEITDPKKMLGVRLEVEGTLITGSKTILHNLLRCVERAGIEITDICLQPLAAGSAALSKDEKNLGVALIDIGGGSTTIAVFQNGHLTSTRVIPLGGENITKDISIGLRTSTEEAERVKKQLGHAYYDEASEDEIFEVTVIGTNQKQTFTQQEAANIIEARVEEILEIVSEELRSMGITDLPGGFVLTGGQAAMPGVMSLAQDVLQNNVRVQGPNYIGVRDPQYMTGVGLIQFACRNARIQGRKIGFKMPEEAIQEIAVSSSEEQEQHHHQNEVQQRPKGKQKTQAEHNKQSKMKKLLSMFWE” the “soluble on expression in E. coli” value was “not soluble”.
In the case of “GSFTMDDISPSELKTILHSKRANLYYLQHCRVLVNGGRVEYVTDEGRHSHYWNIPIANTTSLLLGTGTSITQAAMRELARAGVLVGFCGGGGTPLFSANEVDVEVSWLTPQSEYRPTEYLQRWVGFWFDEEKRLVAARHFQRARLERIRHSWLEDRVLRDAGFAVDATALAVAVEDSARALEQAPNHEHLLTEEARLSKRLFKLAAQATRYGEFVRAKRGSGGDPANRFLDHGNYLAYGLAATATWVLGIPHGLAVLHGKTRRGGLVFDVADLIKDSLILPQAFLSAMRGDEEQDFRQACLDNLSRAQALDFMIDTLKDVAQRSTVSA”, the “soluble on expression in E. coli” value is reported as “soluble”.
With “QKLGDGHYVMDGKVRIDQVNSLLGASIQEDVDTIGGLILKENIDIEAGESIRIGSYTIKVLKMDGRLIKQIDIKEEAGNTTGITAHHKLPLPEPVMLNSATLSEK” the “soluble on expression in E. coli” value was “not soluble”.
In the case of “MGSSHHHHHHSSGRENLYFQGHMTLTSIGPANRMARSAETHPLTWRLREDAQPVWLEEYQSKDGYAAARKALTQMAQDDIVQTVKDSGLKGRGGAGFPTGVKWGLMPKDESLNIRYLLCNADEMEPNTWKDRMLMEQLPHLLVEGMLISARALKAYRGYIFLRGEYVDAARNLNRAIDEAKAAGLLGKNILGSGFDFELFVHTGAGRYICGEETALINSLEGRRANPRSKPPFPAAVGVWGKPTCVNNVETLCNVPAIVGNGVDWYKTLARPGSEDMGTKLMGFSGKVKNPGLWELPFGVSARELFEDYAGGMRDGFQLKAWQPGGAGTGFLLPEHLDAQMFAGGIAKVGTRMGTGLAMAVDDSINMVSLLRNMEEFFARESCGWCTPCRDGLPWSVKLLRALERGEGQPGDLETLEQLVNFLGPGKTFCAHAPGAVEPLGSALKYFRAEFEAGISRQPSAAPRPATVGA”, the “soluble on expression in E. coli” value is reported as “soluble”.
With “TLTVQARQLLSGIVQQQNDLLRAIEAQQHLLQLTVWGIKQLQARSGGRGGWMEWDREINNYTSLIHSLIEESQNQQEKNEQELLEL” the “soluble on expression in E. coli” value was “soluble”.
For “MKTPALPTVQSPLLSSLPGVKHAFFTRQGGVSKGIYDSLNVGRGSQDEPADVEENRARIARWFGGGPEDLNVCYQIHSTIAIVADGSWGDARPEGDAVVSKTPGVICGAMAADCAPVLLVDPEARIVAAAHAGWRGALDGVVQSAVDRMVELGASPANITGVVGPCIGPKSYEVGLEFLHRFEADCPGSGRFFKPGASEDKRFFDLPAFVLDRLATAGVERREWVGRDTRAEEEWFFSNRRAFLNNDGDYGRLLSAITLEA”, the “soluble on expression in E. coli” value was “soluble”.
For “MLPLIYHSIYSRLELPEGHRYPIMKYQYLYEEVRRDVQAEWVQFFEPQALSIEAIKRVHDADYVDLLAQGNMPAAKMRRIGFPWSEALITRTLTSAAG”, the “soluble on expression in E. coli” value was “not soluble”.
In the case of “MGSDKIHHHHHHMMLGNIAYMNPWWEGKEDYHVKLWKNQKIRWEPNWVREISLKPFSLNFILGPRQVGKTTGIKLLIQKILENNPPESVLYLNLEVLPTYRDLLEIIREFQELKKEERIKTGYIFLDEASSLEGWWRGIKPLIDAGLLENDVVTVTGSSSLRVRRDIEMFPGRRGEGKTLEIMPLSFPEYIKVMGLKKHRLESTKVLKLFDKYIQTGGFPGSINGFPMEDLLGAYIGEFVRFGKSLEIAKETLAALIRSAPSATSFRALAEMTSGYSYKVIQDYIEFFRDIYILGIAYLKEDNQVMYRREKKFFFRDPLLARLFSLWSGVEVREDALYEWIVQEHVFRRFGEVYYFRNSYEVDVIADNLKIEVKAGKAHRKYPRGVLVLEKDDIPFFLIEYYWTGLK”, the “soluble on expression in E. coli” value is reported as “not soluble”.
In the case of “MIKMGRSEMKIASAELRELMKAVSEGHYETVNTILDKDPELVNQYAPPTYDSPLARVLNKKHIDYKMLDILVKHHVDFDYPINYHKETPIELACKNQDLQLFKYLVQHNAPISEQAPHFLLVNSTNIKYLTEDKIKNTCEIIKLMGGLEAVSSKCDAEGNRFGEQARKSQLINRFGGIVKYDYMQLLQSVYPIVDREVDAPTIHGSTEVLTNLLNKIRGQFSSKETYDQQNLKDSISLFFMTGGEIPPSRKVPESRFEEAGIDTPKNAL”, the “soluble on expression in E. coli” value is reported as “not soluble”.
For “MPDDKVPTVPDKGADGSPGSSFKNPEILSSQPSESMQAVYEILIQGNNLKTGLPSIVKSQEDLQTLYSVLYGNSLKAPLIDFSKKAVVIAAAGPFNTGGYSIVPVSAIKTGKIINLVFEVKSPGPKDMVTQAFTRPYVIVSVDAEPDTEIFIEINGDAKNDKLDF”, the “soluble on expression in E. coli” value was “not soluble”.
For “MSLTPEHLPTEQYEAQLAEKVVRLQSMMAPFSDLVPEVFRSPVSHYRMRAEFRIWHDGDDLYHIIFDQQTKSRIRVDSFPAASELINQLMTAMIAGVRNNPVLRHKLFQIDYLTTLSNQAVVSLLYHKKLDDEWRQEAEALRDALRAQNLNVHLIGRATKTKIELDQDYIDERLPVAGKEMIYRQVENSFTQPNAAMNIQMLEWALDVTKGSKGDLLELYCGNGNFSLALARNFDRVLATEIAKPSVAAAQYNIAANHIDNVQIIRMAAEEFTQAMNGVREFNRLQGIDLKSYQCETIFVDPPRSGLDSETEKMVQAYPRILYISCNPETLCKNLETLSQTHKVERLALFDQFPYTHHMECGVLLTAKEGHHHHHH”, the “soluble on expression in E. coli” value was “soluble”.
In the case of “YYPKIAEEVYLATLDNGMSLSIIKKKGFIEKAAFLSTNFGALDNRFYIDGKLQTYPAGIAHFLEHKLFEDDQGRDVTLDFVKLGADVNAFTTLDRTTYYFSTIDHFEESLELLLKFTSEFTSSEDTVNHEKRIIEQEINMYQDDPDYRVYLGCLQSLYPNTILGQDIAGSIDSIKKITTKDLKNNFDYFYRPENCHLVLIGNFDIEQIYRFVKETRSEFTISHKTVEK”, the “soluble on expression in E. coli” value is reported as “not soluble”.
For “MAFSASIEDYALIGDQQSAALVARDGSIDWLCLPRFDSPACFAALLGDEHNGKWRIAPKGAGPCTRRAYRTDSLVLDSEWDTPEGTLRVTDLMPQRDSAPDLVRIVEGLRGRVTVRSAIRLRFDYGLEHHHHHH”, the “soluble on expression in E. coli” value was “not soluble”.
